Source: patent publication US20240207462A1 (ABDERA THERAPEUTICS, published 2024)

Biological target: T1, human DLL3.FLAG (Adipogen #AG-40B-0151, amino acid 27-466) (human, UniProt Q9NYJ7 27-466)
T1 construct: range 27-466; The ELISA used human DLL3.FLAG or human DLL3.HIS (abcam #ab255797, amino acid 27-492); not shown: FLAG tag
T1 sequence (looked up): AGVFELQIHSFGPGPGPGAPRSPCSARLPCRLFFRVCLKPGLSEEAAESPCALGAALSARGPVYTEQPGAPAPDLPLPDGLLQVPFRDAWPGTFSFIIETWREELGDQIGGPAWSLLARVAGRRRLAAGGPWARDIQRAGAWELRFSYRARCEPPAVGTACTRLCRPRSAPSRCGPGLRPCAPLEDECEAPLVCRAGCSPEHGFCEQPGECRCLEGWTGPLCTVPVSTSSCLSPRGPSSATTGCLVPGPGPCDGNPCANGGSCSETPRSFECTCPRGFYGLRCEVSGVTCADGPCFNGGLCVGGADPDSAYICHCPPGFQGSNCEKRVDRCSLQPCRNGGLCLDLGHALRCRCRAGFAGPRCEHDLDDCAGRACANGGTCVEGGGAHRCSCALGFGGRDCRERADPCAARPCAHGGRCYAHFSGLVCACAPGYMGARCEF
Test: ELISA, plate coated with hDLL3-Flag, goat anti-human IgG Fc-HRP, TMB, A450

- EC50 (read off the curve): ~0.08 nM
B1: Rovalpituzumab (Creative Biolabs #TAB-216CL) (antibody, V domains shown)
VH: QVQLVQSGAEVKKPGASVKVSCKASGYTFTNYGMNWVRQAPGQGLEWMGWINTYTGEPTYADDFKGRVTMTTDTSTSTAYMELRSLRSDDTAVYYCARIGDSSPSDYWGQGTLVTVSS
VL: EIVMTQSPATLSVSPGERATLSCKASQSVSNDVVWYQQKPGQAPRLLIYYASNRYTGIPARFSGSGSGTEFTLTISSLQSEDFAVYYCQQDYTSPWTFGQGTKLEIK
